Source: the RNAGym collection of RNA variant scans (doi:10.7554/elife.80360)

B1: Hairpin Ribozyme (parent)
chain: GUCCUCUUUCACGUGCGCGUGAAAGAGAGAAGUGAACCAGAGAAACACACGUUGUGGUAUAUUACCUGGUA

Variants of: B1
Experiment: self-cleavage, relative activity (ratio to wild type); higher = more cleavage; co-transcriptional

Variant | self-cleavage
C16A G42C | 0.304
C6A U52G | 0.547
U8A A28U | 0.613
C16U G34A | 1.26
C10A U63G | 0.152
A44G U60G | 0.0699
U2C A31U | 0.25
A26U G40U | 0.131
G13C U67G | 0.281
A31G G32U | 0.121
G69C A71C | 0.609
A22G U67G | 0.247
A43U G69U | 0.174
G17C A39U | 0.35
A26G G69A | 0.451
G29U C65G | 0.0526
U7G G51C | 0.908
A35U C37G | 0.194
U9A G15U | 0.864
U8A A31C | 0.0591
G54A A59U | 0.148
U5C C48U | 0.0847
U33C U55C | 0.173
U9A A49C | 0.254

Variant | self-cleavage
G25C U63A | 0.0846
A31C G34U | 0.0576
C66A G68C | 0.161
C4A U5C | 0.23
C37U U60G | 0.451
A39G G56U | 0.0978
G32C A61U | 0.0498
G34C A59G | 0.174
A39C C50U | 0.156
U62A A71U | 0.169
A11G G42A | 0.201
C12A U60A | 0.621
C10U C46G | 0.0871
A23G G27C | 0.149
G27U C65U | 0.125
A28C U60G | 0.383
U7C U55C | 0.418
G21U U67C | 0.23
G51U U52A | 1.1
U14G G29C | 0.169
U14G A35U | 0.49
C18U U58C | 1.17
C18U A30G | 0.151
G34A C46G | 0.159

Variant | self-cleavage
A22U A36C | 0.589
U2A G29C | 0.105
G17A G34C | 1.3
C4G A45G | 0.274
C3A U55G | 0.193
C6A U9C | 0.262
A61G C66A | 0.246
A28C C65A | 0.231
G17U A26C | 0.682
A11G U58A | 0.557
U8C G13U | 0.529
G17U U70C | 0.859
A31G A41C | 1.2
C4A A24G | 0.143
U33G C65U | 0.0212
G57C U67A | 0.257
U9A U62A | 0.174
G17A A64U | 0.151
A11U U20A | 0.874
U8A C38U | 0.357
A30U A43U | 0.0952
G25C A44U | 0.112
G29U G34U | 0.124
U2G U33G | 0.171

Variant | self-cleavage
A44C U53C | 0.108
C6A G21U | 0.542
G34A A64C | 0.349
A35G G40A | 0.24
U8A C18G | 0.524
A64G A71G | 0.554
G56U C65U | 0.276
A31G C38A | 0.157
G56A U60G | 0.186
U20A G57C | 0.215
G40U A71C | 0.319
U5C A11G | 0.481
A24C A30G | 0.201
U8A U20C | 0.928
U2G A26C | 0.153
G32U U53C | 0.253
U9G G19U | 0.546
A26C U63C | 0.177
G54U U58A | 0.302
U62C U63G | 0.228
G42C A47G | 0.116
G17C G25C | 0.3
G13C G29A | 0.106
C16U U60G | 0.634

Variant | self-cleavage
G32U G69U | 0.0924
U53A G54A | 0.68
U20C A61G | 0.0608
G34A A44G | 0.259
C46G G57U | 0.167
C12U G15C | 0.897
A35U C50G | 0.369
U8A G15C | 0.954
C12U G69A | 0.406
G27C G29A | 0.138
C38A C65G | 0.104
C4U A36U | 0.227
U14G A23C | 0.754
G42C A59G | 0.195
U9G C12U | 0.664
G29U | 0.132
A31U G32C | 0.165
U8C C37U | 0.347
A22G C66A | 0.172
C18U G51C | 0.881
U5C A23U | 0.461
A43G A44G | 0.0966
A31U C65G | 0.166
A28G A47G | 0.198

Variant | self-cleavage
C18G C48U | 0.11
U20G C65G | 0.177
C46G U63C | 0.103
A28U A45C | 0.0951
U5G G32U | 0.132
U20G G56C | 0.312
A31C C38A | 0.141
A35G A39U | 0.265
C37G C48A | 0.192
U52G U63A | 0.139
U2C U52A | 0.287
G54C | 0.433
U2C A43G | 0.167
G19U A59U | 0.213
C10U G54C | 0.444
A28G G57C | 0.263
U7C A28C | 0.367
G40A A71U | 0.198
G25C G42A | 0.174
A11C C37U | 0.494
U5A A24U | 0.273
U8C U53C | 0.766
A41C G56A | 0.155
G15C G54U | 0.647

Variant | self-cleavage
A44U U70G | 0.201
U9A A41U | 0.786
U9A A41C | 0.783
G15C A59G | 0.104
U9G G51C | 0.614
C4G G34C | 1.19
A43G G57A | 0.198
U33G U63A | 0.126
U9G A31G | 0.549
U7A A61G | 0.186
U7A U67C | 0.25
G13A G42A | 0.194
A30G G32U | 0.124
A44U U55G | 0.0792
U2G U63G | 0.252
G32A A41C | 0.145
G34A | 1.21
G25A U33G | 0.136
G1C C50G | 0.171
A59G U67C | 0.128
A31U U55C | 0.0975
G17C C37A | 0.287
U5G C10G | 0.164
